# Measured values as given in the supplement of paper PMC10567573.
# B1: PCMTD2 (parent)
# chain: FFIRTSDSFDKFDFCEPSFVTGNC
# B2: RPAIN (parent)
# chain: ISEYEKSLQFDEKCLSIMLAEWEA
# Variants of: B1
# Assay: protein stability index of a GFP-peptide fusion (GPS, HEK-293T) (PSI 1-6); higher = more stable
# Conditions: c terminus: a fixed tail appended
# 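Note: lentivirally expressed fusions sorted by FACS into six bins by GFP to DsRed ratio, PSI derived from sequencing read proportions per bin multiplied by bin number.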
row,Variant,protein stability index
1,FFIKTSDSFDKFDFCEPSFVTGNC [R4K],1.99
2,FFIQTSDSFDKFDFCEPSFVTGNC [R4Q],1.74
3,FFIATSDSFDKFDFCEPSFVTGNC [R4A],3.21
4,FFIETSDSFDKFDFCEPSFVTGNC [R4E],2.12
5,FFICTSDSFDKFDFCEPSFVTGNC [R4C],3.1
6,FFITTSDSFDKFDFCEPSFVTGNC [R4T],3.27
7,FFIDTSDSFDKFDFCEPSFVTGNC [R4D],2.08
8,FFIPTSDSFDKFDFCEPSFVTGNC [R4P],1.85
9,FFIITSDSFDKFDFCEPSFVTGNC [R4I],1.55
10,FFIMTSDSFDKFDFCEPSFVTGNC [R4M],4.34
11,FFIGTSDSFDKFDFCEPSFVTGNC [R4G],1.31
12,FFIVTSDSFDKFDFCEPSFVTGNC [R4V],2.33
13,FFISTSDSFDKFDFCEPSFVTGNC [R4S],2.39
14,FFIFTSDSFDKFDFCEPSFVTGNC [R4F],2.52
15,FFIWTSDSFDKFDFCEPSFVTGNC [R4W],4.04
16,FFILTSDSFDKFDFCEPSFVTGNC [R4L],2.8
17,FFINTSDSFDKFDFCEPSFVTGNC [R4N],1.65
18,FFIYTSDSFDKFDFCEPSFVTGNC [R4Y],2.93
19,FFIHTSDSFDKFDFCEPSFVTGNC [R4H],2.45
20,WFIRTSDSFDKFDFCEPSFVTGNC [F1W],2.04
21,VFIRTSDSFDKFDFCEPSFVTGNC [F1V],2.15
22,SFIRTSDSFDKFDFCEPSFVTGNC [F1S],2.31
23,MFIRTSDSFDKFDFCEPSFVTGNC [F1M],2.32
24,NFIRTSDSFDKFDFCEPSFVTGNC [F1N],2.4
25,PFIRTSDSFDKFDFCEPSFVTGNC [F1P],2.6
26,EFIRTSDSFDKFDFCEPSFVTGNC [F1E],1.97
27,QFIRTSDSFDKFDFCEPSFVTGNC [F1Q],1.87

row,Variant,protein stability index
1,YFIRTSDSFDKFDFCEPSFVTGNC [F1Y],2.39
2,GFIRTSDSFDKFDFCEPSFVTGNC [F1G],2.28
3,DFIRTSDSFDKFDFCEPSFVTGNC [F1D],2.41
4,AFIRTSDSFDKFDFCEPSFVTGNC [F1A],1.82
5,CFIRTSDSFDKFDFCEPSFVTGNC [F1C],2.93
6,RFIRTSDSFDKFDFCEPSFVTGNC [F1R],2.42
7,HFIRTSDSFDKFDFCEPSFVTGNC [F1H],2.19
8,IFIRTSDSFDKFDFCEPSFVTGNC [F1I],1.81
9,KFIRTSDSFDKFDFCEPSFVTGNC [F1K],2.4
10,TFIRTSDSFDKFDFCEPSFVTGNC [F1T],1.8
11,LFIRTSDSFDKFDFCEPSFVTGNC [F1L],2.4
12,FFLRTSDSFDKFDFCEPSFVTGNC [I3L],1.73
13,FFSRTSDSFDKFDFCEPSFVTGNC [I3S],1.8
14,FFNRTSDSFDKFDFCEPSFVTGNC [I3N],1.98
15,FFARTSDSFDKFDFCEPSFVTGNC [I3A],1.55
16,FFGRTSDSFDKFDFCEPSFVTGNC [I3G],2.18
17,FFYRTSDSFDKFDFCEPSFVTGNC [I3Y],1.81
18,FFQRTSDSFDKFDFCEPSFVTGNC [I3Q],1.96
19,FFRRTSDSFDKFDFCEPSFVTGNC [I3R],2.45
20,FFHRTSDSFDKFDFCEPSFVTGNC [I3H],2
21,FFERTSDSFDKFDFCEPSFVTGNC [I3E],2.04
22,FFDRTSDSFDKFDFCEPSFVTGNC [I3D],2.56
23,FFMRTSDSFDKFDFCEPSFVTGNC [I3M],1.98
24,FFTRTSDSFDKFDFCEPSFVTGNC [I3T],2.1
25,FFCRTSDSFDKFDFCEPSFVTGNC [I3C],1.81
26,FFWRTSDSFDKFDFCEPSFVTGNC [I3W],2.9
27,FFFRTSDSFDKFDFCEPSFVTGNC [I3F],2.17

row,Variant,protein stability index
1,FFPRTSDSFDKFDFCEPSFVTGNC [I3P],1.9
2,FFVRTSDSFDKFDFCEPSFVTGNC [I3V],2.18
3,FFKRTSDSFDKFDFCEPSFVTGNC [I3K],2.07
4,FHIRTSDSFDKFDFCEPSFVTGNC [F2H],1.89
5,FCIRTSDSFDKFDFCEPSFVTGNC [F2C],1.92
6,FMIRTSDSFDKFDFCEPSFVTGNC [F2M],1.81
7,FSIRTSDSFDKFDFCEPSFVTGNC [F2S],2.01
8,FDIRTSDSFDKFDFCEPSFVTGNC [F2D],2.71
9,FWIRTSDSFDKFDFCEPSFVTGNC [F2W],3.73
10,FQIRTSDSFDKFDFCEPSFVTGNC [F2Q],2.06
11,FKIRTSDSFDKFDFCEPSFVTGNC [F2K],2.06
12,FTIRTSDSFDKFDFCEPSFVTGNC [F2T],1.76
13,FYIRTSDSFDKFDFCEPSFVTGNC [F2Y],2.58
14,FNIRTSDSFDKFDFCEPSFVTGNC [F2N],2.35
15,FPIRTSDSFDKFDFCEPSFVTGNC [F2P],2.13
16,FVIRTSDSFDKFDFCEPSFVTGNC [F2V],3.17
17,FRIRTSDSFDKFDFCEPSFVTGNC [F2R],1.65
18,FAIRTSDSFDKFDFCEPSFVTGNC [F2A],2.1
19,FEIRTSDSFDKFDFCEPSFVTGNC [F2E],2.15
20,FGIRTSDSFDKFDFCEPSFVTGNC [F2G],2.41
21,FLIRTSDSFDKFDFCEPSFVTGNC [F2L],3.25
22,FIIRTSDSFDKFDFCEPSFVTGNC [F2I],2.55
23,FFIRASDSFDKFDFCEPSFVTGNC [T5A],3.25
24,FFIRCSDSFDKFDFCEPSFVTGNC [T5C],2.77
25,FFIRDSDSFDKFDFCEPSFVTGNC [T5D],2.37

# Variants of: B2
# Assay: as above
# Conditions: c terminus: a fixed tail appended
row,Variant,protein stability index
1,ISEYEKSLQFDEKCLSIMLAEWCA [E23C],1.87
2,ISEYEKSLQFDEKCLSIMLAEWNA [E23N],2.14
3,ISEYEKSLQFDEKCLSIMLAEWYA [E23Y],1.61
4,ISEYEKSLQFDEKCLSIMLAEWIA [E23I],2.4
5,ISEYEKSLQFDEKCLSIMLAEWDA [E23D],1.62
6,ISEYEKSLQFDEKCLSIMLAEWSA [E23S],2.66
7,ISEYEKSLQFDEKCLSIMLAEWKA [E23K],2.53
8,ISEYEKSLQFDEKCLSIMLAEWVA [E23V],3.22
9,ISEYEKSLQFDEKCLSIMLAEWMA [E23M],2.36
10,ISEYEKSLQFDEKCLSIMLAEWRA [E23R],1.85
11,ISEYEKSLQFDEKCLSIMLAEWGA [E23G],4.39
12,ISEYEKSLQFDEKCLSIMLAEWWA [E23W],2.83
13,ISEYEKSLQFDEKCLSIMLAEWLA [E23L],1.83
14,ISEYEKSLQFDEKCLSIMLAEWPA [E23P],1.65
15,ISEYEKSLQFDEKCLSIMLAEWHA [E23H],2.59
